Here are results for five molecules from publication PMC6368843 (Biochemistry, 2016).

For one series, the target named is T1, Purβ I-II-III (Mus musculus, UniProt O35295).
T1 sequence (O35295 41-303): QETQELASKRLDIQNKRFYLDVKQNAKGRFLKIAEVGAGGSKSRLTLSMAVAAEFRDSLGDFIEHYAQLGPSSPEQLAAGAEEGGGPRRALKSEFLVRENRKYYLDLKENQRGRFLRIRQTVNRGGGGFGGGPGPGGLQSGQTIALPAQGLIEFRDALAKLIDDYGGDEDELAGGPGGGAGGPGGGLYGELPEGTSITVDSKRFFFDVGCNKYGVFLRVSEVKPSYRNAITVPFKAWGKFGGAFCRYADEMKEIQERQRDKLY
The series is described as follows: ssDNA-binding ELISA.

The next series concerns the target T2, Purβ III (Mus musculus, UniProt O35295).
T2 sequence (O35295 209-303): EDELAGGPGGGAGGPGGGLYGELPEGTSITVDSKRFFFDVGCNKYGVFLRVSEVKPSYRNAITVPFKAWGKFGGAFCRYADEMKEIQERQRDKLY
Briefly: ssDNA-binding ELISA.

Series [1] addresses T3, Purβ FL (full-length NHis-Purβ) (Mus musculus, UniProt O35295).
T3 sequence (O35295 1-324): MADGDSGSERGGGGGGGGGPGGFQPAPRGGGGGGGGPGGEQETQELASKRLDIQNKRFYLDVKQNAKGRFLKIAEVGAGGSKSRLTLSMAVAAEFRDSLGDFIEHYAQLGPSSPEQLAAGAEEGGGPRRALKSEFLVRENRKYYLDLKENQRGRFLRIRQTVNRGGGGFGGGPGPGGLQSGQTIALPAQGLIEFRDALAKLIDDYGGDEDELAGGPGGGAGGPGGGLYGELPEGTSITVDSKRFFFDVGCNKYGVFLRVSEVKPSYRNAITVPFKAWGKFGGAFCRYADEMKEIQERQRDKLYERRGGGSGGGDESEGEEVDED
Briefly: ssDNA-binding ELISA.

For another series, the target named is T4, Purβ R267A (Mus musculus, UniProt O35295 1-324, R267A).
T4 sequence: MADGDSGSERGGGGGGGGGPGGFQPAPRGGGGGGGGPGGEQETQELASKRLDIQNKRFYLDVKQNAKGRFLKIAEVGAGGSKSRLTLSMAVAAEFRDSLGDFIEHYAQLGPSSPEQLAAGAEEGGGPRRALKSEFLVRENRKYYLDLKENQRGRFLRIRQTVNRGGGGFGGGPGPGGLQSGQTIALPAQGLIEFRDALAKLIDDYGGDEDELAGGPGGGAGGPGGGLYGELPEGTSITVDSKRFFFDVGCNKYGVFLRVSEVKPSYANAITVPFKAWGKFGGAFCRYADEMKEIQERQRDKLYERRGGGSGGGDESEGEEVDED
The series is described as follows: ELISA.

The next series addresses T5, Purβ R159A/R267A (Mus musculus, UniProt O35295 1-324, R159A;R267A).
T5 sequence: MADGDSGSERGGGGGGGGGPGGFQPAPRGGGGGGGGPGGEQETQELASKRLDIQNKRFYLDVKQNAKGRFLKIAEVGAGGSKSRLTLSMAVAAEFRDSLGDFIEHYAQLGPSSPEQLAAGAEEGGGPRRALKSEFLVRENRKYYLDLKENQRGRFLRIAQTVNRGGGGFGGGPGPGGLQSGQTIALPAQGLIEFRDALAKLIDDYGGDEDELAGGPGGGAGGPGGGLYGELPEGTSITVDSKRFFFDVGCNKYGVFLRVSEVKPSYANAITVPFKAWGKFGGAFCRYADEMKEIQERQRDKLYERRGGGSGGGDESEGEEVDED
The series is described as follows: ELISA.

Series [2] concerns the target T6, Purβ FL (wild-type NHis-Purβ) (Mus musculus, UniProt O35295 1-324).
T6 sequence: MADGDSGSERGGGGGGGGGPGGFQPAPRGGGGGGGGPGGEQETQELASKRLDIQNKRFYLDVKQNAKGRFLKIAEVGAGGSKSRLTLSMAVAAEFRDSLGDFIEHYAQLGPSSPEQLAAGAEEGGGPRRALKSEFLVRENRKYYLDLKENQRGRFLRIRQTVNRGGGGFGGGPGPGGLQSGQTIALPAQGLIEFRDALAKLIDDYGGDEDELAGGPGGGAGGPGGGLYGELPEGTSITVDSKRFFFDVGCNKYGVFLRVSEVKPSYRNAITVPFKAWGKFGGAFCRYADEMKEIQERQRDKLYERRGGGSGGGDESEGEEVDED
The series is described as follows: ELISA.

The series “SEC” concerns the molecule itself. The series is described as follows: SEC.

For `C[C@H](CCC(=O)O)[C@H]1CC[C@H]2[C@@H]3CC[C@@H]4C[C@H](O)CC[C@]4(C)[C@H]3C[C@H](O)[C@]12C` [sodium deoxycholate], the IC50 on Purβ I-II-III was determined as 2030 µM; on Purβ III it was 1450 µM; in series [1] it was 2360 µM.

Consider GGGAGCAGAACAGAGGAATGCAGTGGAAGAGA (ssDNA) [PE32-bF], for which the figures for the Kd (in the series with Purβ R267A; with Purβ R159A/R267A; in series [2]) were 0.00057 ± 4e-05 µM, 0.0006 ± 4e-05 µM and 0.00017 ± 1e-05 µM, respectively.

B1: Purβ K82A/R159A/R267A triple point mutant, N-terminally hexahistidine-tagged (natural protein, mouse, UniProt O35295 1-324, looked up)
chain: MADGDSGSERGGGGGGGGGPGGFQPAPRGGGGGGGGPGGEQETQELASKRLDIQNKRFYLDVKQNAKGRFLKIAEVGAGGSASRLTLSMAVAAEFRDSLGDFIEHYAQLGPSSPEQLAAGAEEGGGPRRALKSEFLVRENRKYYLDLKENQRGRFLRIAQTVNRGGGGFGGGPGPGGLQSGQTIALPAQGLIEFRDALAKLIDDYGGDEDELAGGPGGGAGGPGGGLYGELPEGTSITVDSKRFFFDVGCNKYGVFLRVSEVKPSYANAITVPFKAWGKFGGAFCRYADEMKEIQERQRDKLYERRGGGSGGGDESEGEEVDED
Consider B1, for which, in “SEC”, the “stoichiometry N” value is 2.

B2: Purβ R267A single point mutant, N-terminally hexahistidine-tagged (natural protein, mouse, UniProt O35295 1-324, looked up)
chain: MADGDSGSERGGGGGGGGGPGGFQPAPRGGGGGGGGPGGEQETQELASKRLDIQNKRFYLDVKQNAKGRFLKIAEVGAGGSKSRLTLSMAVAAEFRDSLGDFIEHYAQLGPSSPEQLAAGAEEGGGPRRALKSEFLVRENRKYYLDLKENQRGRFLRIRQTVNRGGGGFGGGPGPGGLQSGQTIALPAQGLIEFRDALAKLIDDYGGDEDELAGGPGGGAGGPGGGLYGELPEGTSITVDSKRFFFDVGCNKYGVFLRVSEVKPSYANAITVPFKAWGKFGGAFCRYADEMKEIQERQRDKLYERRGGGSGGGDESEGEEVDED
As to B2, in “SEC”, the “stoichiometry N” value turned out to be 2.

B3: Purβ R159A/R267A double point mutant, N-terminally hexahistidine-tagged (natural protein, mouse, UniProt O35295 1-324, looked up)
chain: MADGDSGSERGGGGGGGGGPGGFQPAPRGGGGGGGGPGGEQETQELASKRLDIQNKRFYLDVKQNAKGRFLKIAEVGAGGSKSRLTLSMAVAAEFRDSLGDFIEHYAQLGPSSPEQLAAGAEEGGGPRRALKSEFLVRENRKYYLDLKENQRGRFLRIAQTVNRGGGGFGGGPGPGGLQSGQTIALPAQGLIEFRDALAKLIDDYGGDEDELAGGPGGGAGGPGGGLYGELPEGTSITVDSKRFFFDVGCNKYGVFLRVSEVKPSYANAITVPFKAWGKFGGAFCRYADEMKEIQERQRDKLYERRGGGSGGGDESEGEEVDED
Regarding B3, the “stoichiometry N” value in “SEC” amounted to 2.
